Laboratory results as given in PMC7139957.

Molecular target: laminin-111 (UniProt P19137)
Assay: AFM single-molecule force spectroscopy; integrin coupled to PEG-functionalized cantilever, laminin-111 (3 µg/mL) coated on mica; contact 1 s, retraction 300 nm/s; rupture force of the last contact

rupture force	Substance
16 pN	soluble recombinant integrin α7hiβ1 ectodomains (hinge mutant, C604 and C610 replaced by alanine), heterodimerized with the zipper domains of Fos and Jun (from UniProt P05556 21-728) (complex)
30 pN	soluble recombinant integrin α7wtβ1 ectodomains, heterodimerized with the zipper domains of Fos and Jun (from UniProt P05556 21-728) (complex)
